Experimental data reported in PMC11574021, “CEP192 localises mitotic Aurora-A activity by priming its interaction with TPX2” (The EMBO Journal, 2024).
Like-named read-outs stand apart in the source and are kept apart here. Each block holds one molecule with its values, some of them ahead of it.

B1: Aurora-A^CAKD (Aurora-A kinase domain, aa 122–403 C290A, C393A), unphosphorylated (domain or fragment, human, UniProt O14965 122-403, looked up)
chain: ESKKRQWALEDFEIGRPLGKGKFGNVYLAREKQSKFILALKVLFKAQLEKAGVEHQLRREVEIQSHLRHPNILRLYGYFHDATRVYLILEYAPLGTVYRELQKLSKFDEQRTATYITELANALSYCHSKRVIHRDIKPENLLLGSAGELKIADFGWSVHAPSSRRTTLAGTLDYLPPEMIEGRMHDEKVDLWSLGVLCYEFLVGKPPFEANTYQETYKRISRVEFTFPDFVTEGARDLISRLLKHNPSQRPMLREVLEHPWITANSSKPSNAQNKESASKQS
notes: Aurora-A kinase domain, human, residues 122-403, variant lacking surface cysteines; also called Aurora-A 122–403 C290A C393A; unphosphorylated Aurora-A^CAKD; source: E. coli RIL, co-expressed with lambda phosphatase, purified (HisTrap, TEV cleavage, SEC); not shown: His6, N-terminal, cleaved
B2: human CEP192 468–533 Y487A/F490A (domain or fragment, UniProt Q8TEP8 468-533, looked up)
chain: PQSVVYQNEEGRWVTDLAYATSANSKQNLNVSLSDEMNEDFRSGSEAFDLIAQDEEEFNKEHQFIQ
notes: source: E. coli B834 RIL, purified (HisTrap, TEV cleavage, SEC); not shown: His6, N-terminal, cleaved; SUMO, N-terminal, cleaved

Legend:
[1] = target: B2; assay: ITC; 250 μM Aurora-A in the syringe, 25 μM CEP192 construct in the cell; 25 °C; 20 mM tris pH 7.5, 200 mM NaCl, 10% glycerol, 5 mM MgCl2; conditions: both partners purified
[2] = target: T1, human CEP192 468–533 (human, UniProt Q8TEP8 468-533); assay: as above; conditions: both partners purified
T1 construct: also called CEP192_(506-527_F); source: E. coli B834 RIL, purified (HisTrap, TEV cleavage, SEC); for crystallisation co-expressed with Aurora-A^M7KD and co-purified; not shown: His6, N-terminal, cleaved; SUMO, N-terminal, cleaved
T1 sequence (looked up): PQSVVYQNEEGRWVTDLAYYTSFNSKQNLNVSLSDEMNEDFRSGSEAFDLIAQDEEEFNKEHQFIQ

[3] = target: T2, Aurora-A^CAKD (Aurora-A kinase domain, aa 122–403 C290A, C393A), unphosphorylated (human, UniProt O14965 122-403, C290A | C393A); assay: FP; competition with FAM-TPX2 7-43
T2 sequence: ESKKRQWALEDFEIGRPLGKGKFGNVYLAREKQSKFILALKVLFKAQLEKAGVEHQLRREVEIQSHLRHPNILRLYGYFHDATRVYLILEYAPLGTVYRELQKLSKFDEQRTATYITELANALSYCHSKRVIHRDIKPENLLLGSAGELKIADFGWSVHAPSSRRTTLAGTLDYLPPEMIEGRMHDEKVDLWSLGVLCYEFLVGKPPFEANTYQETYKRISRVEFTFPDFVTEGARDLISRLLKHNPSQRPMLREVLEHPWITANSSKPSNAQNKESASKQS

[4] = target: B1; assay: ITC; 250 μM Aurora-A in the syringe, 25 μM CEP192 construct in the cell; 25 °C; 20 mM tris pH 7.5, 200 mM NaCl, 10% glycerol, 5 mM MgCl2; conditions: both partners purified
[5] = target: T3, phosphorylated Aurora-A CAKD (Homo sapiens, UniProt O14965, C290A/C393A); assay: ADP-Glo kinase assay, kemptide substrate; assay type: biochemical
T3 construct: 10 nM Aurora-A 122–403 C290A C393A phosphorylated protein; His (N, cleaved yes); made in house; host or cells: E. coli B834 (no lambda phosphatase)
T3 sequence (O14965 122-403 C290A/C393A): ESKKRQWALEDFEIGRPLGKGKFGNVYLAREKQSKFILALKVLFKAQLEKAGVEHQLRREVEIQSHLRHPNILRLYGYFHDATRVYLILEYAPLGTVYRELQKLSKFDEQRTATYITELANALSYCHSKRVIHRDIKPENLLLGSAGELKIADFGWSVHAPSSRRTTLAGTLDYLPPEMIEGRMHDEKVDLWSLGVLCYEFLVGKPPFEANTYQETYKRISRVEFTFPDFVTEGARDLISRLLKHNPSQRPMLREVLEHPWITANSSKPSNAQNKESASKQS
Procedure: Reactions were initiated by the addition of 10 μM ATP and 100 μM kemptide as substrate (Cambridge Bioscience Ltd). The reactions were incubated at room temperature for 60 min before 5 μl was transferred into 5 ul of ADP-Glo Reagent (Promega) in a 384-well low volume low binding plate (Greiner Bio-one). After a further 40 min at room temperature, 10 μl of kinase detection reagent was added to each well, and the reaction was allowed to incubate for an additional 30 min. Luminescence was measured on a HIDEX Sense plate reader (HIDEX) using a 1 s integration time. Control data was subtracted from the luminescence and three repeats were averaged before being fitted to a sigmoidal plot using Origin (OriginLab), where IC50 and EC50 values were calculated.

[6] = target: Aurora-A; conditions: from ITC; ref (Burgess et al, [2015]; McIntyre et al, [2017]; Zorba et al, [2014]); cited from earlier work
Procedure: This is a higher affinity than observed in a previous study that used CEP192 proteins fused to MBP, a large protein tag that might have affected the interaction (Park et al, [2023]). For context, the affinity of Aurora-A for its other key mitotic partners are: TPX2_1-43 (Kd 0.3–2 μM from ITC) and TACC ...

Molecule: B1
stoichiometry N [1]: 0.84
stoichiometry N [2]: 0.85

Molecule: B2
IC50 [3]: 14100 nM
Kd [4]: 2000 nM

EC50 ([5]; 10 nM phosphorylated Aurora-A CAKD, 10 μM ATP, 100 μM kemptide, 60 min, n = 3, read-out: ADP-Glo EC50 (stimulation of Aurora-A activity)): 6.8 ± 0.5 nM
EC50 ([5]; ADP-Glo, 10 nM Aurora-A, first manuscript version, quoted by referee, read-out: concentration of 50 % max activation): 1 nM
B3: TPX2 1-43: Aurora-A activating domain of TPX2 (aa 1–43) (protein)
chain: MSQVKSSYSYDAPSDFINFSSLDDEGDTQNIDSWFEEKANLENKLLGKNGTGGLFQGKTPLRKANLQQAIVTPLKPVDNTYYKEAEKENLVEQSIPSNACSSLEVEAAISRKTPAQPQRRSLRLSAQKDLEQKEKHHVKMKAKRCATPVIIDEILPSKKMKVSNNKKKPEEEGSAHQDTAEKNASSPEKAKGRHTVPCMPPAKQKFLKSTEEQELEKSMKMQQEVVEMRKKNEEFKKLALAGIGQPVKKSVSQVTKSVDFHFRTDERIKQHPKNQEEYKEVNFTSELRKHPSSPARVTKGCTIVKPFNLSQGKKRTFDETVSTYVPLAQQVEDFHKRTPNRYHLRSKKDDINLLPSKSSVTKICRDPQTPVLQTKHRARAVTCKSTAELEAEELEKLQQYKFKARELDPRILEGGPILPKKPPVKPPTEPIGFDLEIEKRIQERESKKKTEDEHFEFHSRPCPTKILEDVVGVPEKKVLPITVPKSPAFALKNRIRMPTKEDEEEDEPVVIKAQPVPHYGVPFKPQIPEARTVEICPFSFDSRDKERQLQKEKKIKELQKGEVPKFKALPLPHFDTINLPEKKVKNVTQIEPFCLETDRRGALKAQTWKHQLEEELRQQKEAACFKARPNTVISQEPFVPKKEKKSVAEGLSGSLVQEPFQLATEKRAKERQELEKRMAEVEAQKAQQLEEARLQEEEQKKEELARLRRELVHKANPIRKYQGLEIKSSDQPLTVPVSPKFSTRFHC
Kd [6]: 300 to 2000 nM
